{
  "source": "patent US20150196533A1",
  "about": "“METHOD FOR CONCURRENT TREATMENT OF PAIN AND DEPRESSION” (The General Hospital Corporation, priority 2012, published 2015)",
  "molecules": {"B1": {"name": "IL-6: exogenous IL-6 (recombinant rat IL-6), proinflammatory cytokine (protein, UniProt P20607 25-211, looked up)", "Interleukin-6": "FPTSQVRRGDFTEDTTHNRPVYTTSQVGGLITYVLREILEMRKELCNGNSDCMNSDDALSENNLKLPEIQRNDGCFQTGYNQEICLLKICSGLLEFRFYLEFVKNNLQDNKKDKARVIQSNTETLVHIFKQEIKDSYKIVLPTPTSNALLMEKLESQKEWLRTKTIQLILKALEEFLKVTMRSTRQT"}},
  "tested_on": "IDO1 expression in Neuro2a cells",
  "test": "IL-6 exposure of cultured Neuro2a cells: IDO1 expression and activity",
  "type": "cell-based",
  "conditions": "0.5 ng/ml for 24 hours",
  "protocol": "Neuro2a cells were cultured in minimal essential (EAGLE) medium (Invitrogen) supplemented with 10% fetal bovine serum, 100 U/ml penicillin, and 100 μg/ml streptomycin (Invitrogen) in a humidified atmosphere of 5% CO2 and 95% air at 37° C. Cells were treated with 0.5 ng/ml IL-6 or vehicle and collected 24 hours later for assays (74).\nRats were anesthetized with pentobarbital (50 mg/kg, i.p.) and perfused transcardially with cold 0.9% saline (pH 7.4±0.1) followed by cold 4% paraformaldehyde in a phosphate buffer (PB, 0.1M, pH 7.4±0.1). Brains were removed and placed in the same fixative for post-fixation at 4° C. for 6 hours. For cryoprotection, the samples were kept with cold 30% sucrose in phosphate buffer saline (PBS) at 4° C. until samples sank to the bottom. Coronal brain sections (30 μm) were cut using a cryostat and then floated in PBS. Sections were blocked with 5% normal donkey serum in 0.3% Triton X-100/PBS for 1 hour at room temperature. Free floating sections were incubated overnight at 4° C. on a rocker with one of the following primary antibodies: 1:100, IDO1 rabbit polyclonal (Santa Cruz Biotechnology Inc.); 1:1,000, NeuN mouse monoclonal (Chemicon); 1:1,000, GFAP mouse monoclonal (BD Bioscience Pharmingen); 1:1,000, Iba-1 mouse monoclonal (Abcam). Sections were then washed with PBS three times and incubated with 1:300 FITC- or cyanine3-conjugated secondary antibody (JacksonlnununoResearch Laboratories Inc) for 1 hour at room temperature. Blue fluorescent DAPI (1:300; Invitrogen) was used to stain the nucleus of fixed cultured Neuro2a cells for 15 minutes.\nRats were sacrificed under pentobarbital anesthesia. The hippocampus was separated from the brain and immediately stored on dry ice and kept at −80° C. until use. Samples were homogenized in a lysis buffer with SDS containing a cocktail of proteinase inhibitors (Roche). Samples were separated on an SDS-PAGE gel (4%-15% gradient gel; Bio-Rad) and transferred to polyvinylidene difluoride filter (PVDF) membranes (Millipore). Membranes were blocked with 5% nonfat dried milk for 1 hour at room temperature and incubated over night at 4° C. on a rocker with one of following primary antibody: 1:200 IDO1 (Santa Cruz Biotechnology Inc.; rabbit polyclonal antibody), 1:200 IDO1 (Novius Biologicals; rabbit polyclonal antibody), 1:500 JAK2 (Santa Cruz Biotechnology Inc.; rabbit polyclonal antibody), 1:1,000 STAT3 (Millipore; rabbit polyclonal antibody), 1:5,000 p-STAT3 (Abcam; rabbit monoclonal antibody). After membranes were washed with PBS×4, membranes were incubated with 1:8,000 HRP conjugated secondary antibody (Amersham, Biosciences) for 1 hour at room temperature on a rocker. The membranes were washed with PBS×4 and blots were visualized in enhanced Chemiluminescent (ECL) solution (Pierce) for 5 minutes and exposed to hyperfilms (Kodak) for 15 minutes. Blots were again incubated in a Stripping buffer (Pierce) for 15 minutes at room temperature on a rocker and reprobed with 1:12,000 anti-β-actin antibody (Abeam Inc.) as a loading control. Western blots were made in triplicates. Band density was measured and normalized against a loading control band.\nTotal RNA was isolated from hippocampal samples using TRIzol reagent (Invitrogen). Four μg of total RNA was used to synthesize the first strand cDNA using SuperScript III kit (Invitrogen). Four μl of cDNA was put into 20 μl vessel with 1 μl of 20× TaqMan Gene Expression Assay. Taqman Gene Expression Assays (Applied Biosystems) containing primers and a Taqman probe were used to quantify each gene of interest. The genes examined were IL-6 (Rn01410330 m1, M26744.1) and IDO1 (Rn00576778 m1, AF312699.1) for rats and IL-6 (Mm00446190 m1, X54542.1) and IDO1 (Mm00492586 m1, M69109.1) for mice. The reaction was performed in duplicate with the following conditions: denaturing at 95° C. for 30 s, annealing at 60° C. for 2 min, extension at 68° C. for 2 min for 40 cycles using a 7300 Real-Time PCR System (Applied Biosystems). […]",
  "data": [
    {"molecule": "B1", "values": [
      {"measurement": "IDO1 immunoreactivity (FIG. 8A)", "result": "increased"},
      {"measurement": "IDO activity [KYN/TRP ratio and 5-HT/TRP ratio]", "result": "increased"},
      {"measurement": "kynurenine/tryptophan ratio (HPLC; FIG. 8D)", "setting": "P<0.05", "result": "increased kynurenine/tryptophan ratio"},
      {"measurement": "serotonin/tryptophan ratio (HPLC; FIG. 8E)", "setting": "P<0.05", "result": "decreased serotonin/tryptophan ratio"},
      {"measurement": "IDO1 mRNA expression (real-time PCR; FIG. 8B)", "setting": "P<0.05 vs vehicle", "result": "significantly increased"},
      {"measurement": "IDO1 protein expression (Western blot; FIG. 8C)", "setting": "P<0.05 vs vehicle", "result": "significantly increased"}
    ]}
  ]
}
